# Measured values taken from the RNAGym collection of RNA variant scans (doi:10.1073/pnas.2313332121).
# B1: TPR t1 (parent)
# chain: GACCAAUCUGCCCUCAGAGCUCGAGAACAUCUUCGGAUGCAGAGGAGGCAGGCUUCGGUGGCGCGAUAGCGCCAACGUCCUCAACCUCCAAUGCAUCCCACCACAUGAUGAUGCCUGAAGAGCCUUGGUUUUUUG
# Variants of: B1
# Assay: polymerase ribozyme fitness, log enrichment relative to wild type (log ratio); higher = more active; in vitro selection for triplet polymerase activity
# Outline: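 PCR was used to build mutant libraries for each subunit of a heterodimeric triplet polymerase ribozyme, which were then transcribed. A single in vitro selection round, in triplicate, used a frozen incubation at −7 °C and recovered extended constructs by gel excision, streptavidin beads and RT-PCR. Fitness is the logarithm of genotype enrichment relative to wild-type enrichment, averaged over replicates with inverse-variance weights. The logarithm is base 2, and after Illumina sequencing only genotypes with ≥10 input reads and ≥1 read per output were kept.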
row,Variant,polymerase ribozyme fitness (log ratio)
1,C73U U106C,-0.194
2,C73U U109C,-3.63
3,C73U U109G,-4.33
4,A74C A90C C101G,-3.22
5,A74C A90U,-0.572
6,A74C G93A,-0.578
7,A74C G110A,-1.2
8,A74C G110C,-4.36
9,A74C G120A U132G U134A,0.272
10,A74C G120C,1.48
11,A74C G120U,0.00369
12,A74G C89G,-1.41
13,A74G C94U,0.88
14,A74G C98G,-6.09
15,A74G C101U,0.132
16,A74G C114G,-2.02
17,A74G C123G,1.31
18,A74G C123U,1.13
19,A74G G117U,-2.41
20,A74G U96G,-0.295
21,A74U A83U A84C G120U G122A U125A,-1.84
22,A74U A95U,-0.222
23,A74U C80U,-1.18
24,A74U C85U C94A,-1.55

row,Variant,polymerase ribozyme fitness (log ratio)
1,A74U C86U,-0.818
2,A74U C88U U116A,-3.69
3,A74U C89U,-0.535
4,A74U C94U,-0.301
5,A74U C99G U106A,-6.33
6,A74U C104A,-1.82
7,A74U G77U C98U C102G,-6.8
8,A74U G93A C123A,-0.279
9,A74U G113A,-1.11
10,A74U G113U,-3.37
11,A74U G117A U130C,-2.62
12,A74U G128U U130C,-0.708
13,A74U U87G,0.353
14,A74U U96A A100U G113U,-6.78
15,A74U U109C,-4.13
16,A74U U112A G113C A118C G135U,-3.34
17,A74U U116G U133G,-2.9
18,A74U U130G,-0.154
19,A75C,-0.585
20,A75C G77C,-1.58
21,A75G,0.101
22,A75G C85U U130C,-0.982
23,A75G C88A C104A U112A,-1.1
24,A75G C94A,-0.695

row,Variant,polymerase ribozyme fitness (log ratio)
1,A75G U106G C124A,0.661
2,A75G U112A U131A,1.22
3,A75G U116A G117U C123U,-2.78
4,A75G U129C,-0.465
5,A75U,-0.493
6,A75U A95C U116C U125C,-3.04
7,A75U C85A U92C G113C,-3.69
8,A75U C86U C88U,0.294
9,A75U C104U U106A,-0.439
10,A75U G128A,-1.64
11,C76A,-0.611
12,C76A A84U U106A G120U,-2.24
13,C76A A95U C115U,-4.9
14,C76A A119G,0.169
15,C76A C79G,-0.726
16,C76A C85A,-0.928
17,C76A C89U U129A,-2.51
18,C76A C99U G120U,-5.6
19,C76A C115U,-2.9
20,C76A C115U U129A,-4.13
21,C76A C123G,-0.164
22,C76A G110A,-1.79
23,C76G,-0.207
24,C76G A95G,-0.229

row,Variant,polymerase ribozyme fitness (log ratio)
1,C76G C82U,-0.815
2,C76G C85A U132C,-0.689
3,C76G C101A,-3.2
4,C76G G77U U78G U112C,2.21
5,C76G G93A C124G,1.31
6,C76G U78A U81A C89G A119U,-3.52
7,C76G U78C G135U,-1.36
8,C76G U87G,-0.0658
9,C76U,-0.164
10,C76U A90G C115A,-0.0334
11,C76U C82A G120A,0.131
12,C76U C88U,-0.561
13,C76U C89G C98U,-4.45
14,C76U C97U,-0.795
15,C76U C123A,0.138
16,C76U U92G,-3.28
17,G77A A83C C86U U116A G120C U125A,-1.96
18,G77A A83U A84C C86A C101U G117C,-6.46
19,G77A A95C,-0.839
20,G77A A121U,1.88
21,G77A C79U,0.354
22,G77A C79U G120U C123A,0.335
23,G77A C82A U109A,-4.87
24,G77A C82G,-1.13

row,Variant,polymerase ribozyme fitness (log ratio)
1,G77A C89A,-1.73
2,G77A C101A,-1.18
3,G77A G120A G128C,-2.08
4,G77A U78C A105C A121C,-1.42
5,G77A U81A,-1.01
6,G77A U112A,0.751
7,G77A U112G,0.316
8,G77C A90G A111G,-0.0361
9,G77C A95U,-0.809
10,G77C C89G G122U C123U,-1.58
11,G77C C97U U109A,-5.64
12,G77C C102U,-2.02
13,G77C C104A U116G G122A,-5.01
14,G77C G93A,-0.532
15,G77C U87A G93C A105U C115A,-5.31
16,G77U A84G C85G,-2.45
17,G77U A91U,-2.18
18,G77U A105G,-2.9
19,G77U C79A,-2.32
20,G77U C79U U106A,-0.0765
21,G77U C79U U106C,-0.595
22,G77U C114G,-2.88
23,G77U G128C,-3.09
24,G77U U92G,-2.77

row,Variant,polymerase ribozyme fitness (log ratio)
1,G77U U92G C124U,-1.84
2,G77U U96A,-1.04
3,G77U U106C C124A,-3.43
4,G77U U125A,-1.21
5,U78A,-0.254
6,U78A A95G C102A,-2.41
7,U78A A100C,-1.08
8,U78A A105G,-2.86
9,U78A A111C,-0.127
10,U78A C79A A95C,-4.32
11,U78A C94U C115A G127C,-1.41
12,U78A C124U U125A U133C,1.84
13,U78A G93A C97A A121C,-5.11
14,U78A G120A,0.814
15,U78A U109C,-4.47
16,U78A U112A,1.06
17,U78C,-0.247
18,U78C A83U,-0.61
19,U78C A84C U96G U116G,-3.6
20,U78C A84G G128A,-3.53
21,U78C A91G G93U,-2.35
22,U78C A95C C123A,0.0148
23,U78C A103G U109A C114A A119C,-6.28
24,U78C A111C,0.402

row,Variant,polymerase ribozyme fitness (log ratio)
1,U78C A111G G117A,-2.7
2,U78C C80U C99U A121G,-3.12
3,U78C C85G U129C,-2.13
4,U78C C88A,-0.513
5,U78C C99A U106C,-4.95
6,U78C C101A,-0.679
7,U78C C102G,-5.35
8,U78C C114A,-1.63
9,U78C C115U,0.0691
10,U78C C124G,1.08
11,U78C G110U,-1.27
12,U78C G113A G135U,-2.01
13,U78C G120A,0.768
14,U78C G135A,-1.44
15,U78C U81A U87G C123G,1.68
16,U78C U81C,-0.434
17,U78C U81G,-3.03
18,U78C U81G G120C,-1.18
19,U78C U87A,1.12
20,U78C U87C,0.532
21,U78C U87G,0.287
22,U78C U92A,-3.1
23,U78C U92C U96C U106A,-1.75
